Test results as given in US20050070690A1.
pKd: −log10 of the molar value.

Key:
[1] = target: nerve growth factor; assay: SPR (BiaCore), TrkIg2 amine-coupled to CM5 chip, NGF passed over at 0.1-100 nM, 1:1 Langmuir model
[2] = target: brain derived neurotrophic factor; assay: SPR (BiaCore), TrkIg2 amine-coupled to CM5 chip, BDNF passed over at 0.1-25 nM, 1:1 Langmuir model
[3] = target: neurotrophin-4; assay: SPR (BiaCore), TrkIg2 amine-coupled to CM5 chip, NT-4 passed over at 1-100 nM, 1:1 Langmuir model

pKd [1] | pKd [2] | pKd [3] | Substance
10.03 |  |  | TrkAIg26His (from UniProt P04629-2) (receptor)
10.10 |  |  | TrkAIg2.66His (from UniProt P04629) (receptor)
 | 9.10 | 9.59 | TrkBIg26His (from UniProt Q16620) (receptor)
